Assay results as given in the supplement of paper PMC7877785.
± gives the uncertainty stated by the source.

Assay: self-splicing fitness, log relative to wild type (ln ratio); higher = more splicing; Tetrahymena group I intron in knt gene, E. coli kanamycin selection, DiMSum; sequences stand for … in CUCUCU…GGAGGGAAAAGUUAUCAGGCAUGCACCUGGUAGCUAGUCUUUAAACCAAUAGAUUGCAUCGGUUUAAAAGGCAAGACCGUCAAAUUGCGGGAAAGGGGUCAACAGCCGUUCAGUACCAAGUCUCAGGGGAAACUUUGAGAUGGCCUUGCAAAGGGUAUGGUAAUAAGCUGACGGACAUGGUCCUAACCACGCAGCCAAGUCCUAAGUCAACAGAUCUUCUGUUGAUAUGGAUGCAGUUCACAGACUAAAUGUCGGUCGGGGAAGAUGUAUUCUUCUCAUAAGAUAUAGUCGGACCUCUCCUUAAUGGGAGCUAGCGGAUGAAGUGAUGCAACACUGGAGCCGCUGGGAACUAAUUUGUAUGCGAAAGUAUAUUGAUUAGUUUUGGAGUACUCGUGGUCG
Procedure, shortened: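 Fitness was computed with DiMSum as the error-weighted combination of replicate fold changes, kanamycin versus none, each normalised to wild type. The library randomised all eight intron nucleotides of the P1ex region, with the intron placed in the knt kanamycin-resistance gene on pET-22b(+) in E. coli BL21(DE3). Six replicate transformations were grown overnight at 37°C or 30°C on LB agar with or without 25 μg/mL kanamycin, plus 100 μg/mL carbenicillin, 50 μM IPTG and 0.2% rhamnose. Pooled colonies were amplicon-sequenced on an Illumina HiSeq 2500.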

Sequence | self-splicing fitness (ln) (30 °C) | self-splicing fitness (ln) (37 °C)
UAUGAGCAAUAUUACGAUUG | -1.94 ± 0.17 | -1.11 ± 0.2
UAUGAGCAAUAUUACGCCCA | -2.3 ± 0.27 | 0.171 ± 0.49
UAUGAGCAAUAUUACGCUCG | -2.09 ± 0.21 | -2.2 ± 0.35
UAUGAGCAAUAUUACGGAAA | -1.13 ± 0.49 | –
UAUGAGCAAUAUUACGGAUA | -2 ± 0.23 | 0.104 ± 0.21
UAUGAGCAAUAUUACGGCAG | -1.5 ± 0.25 | -0.674 ± 0.27
UAUGAGCAAUAUUACGGCAU | -2.94 ± 0.27 | -2.05 ± 0.41
UAUGAGCAAUAUUACGGGAA | – | -2.7 ± 0.41
UAUGAGCAAUAUUACGGGAC | – | -1.11 ± 0.17
UAUGAGCAAUAUUACGGGAU | -3.06 ± 0.21 | -2.35 ± 0.29
UAUGAGCAAUAUUACGUACC | -2.28 ± 0.46 | -1.86 ± 0.43
UAUGAGCAAUAUUACGUAGG | -4.19 ± 0.34 | -2.41 ± 0.21
UAUGAGCAAUAUUACGUCGC | -4.2 ± 0.39 | -2.45 ± 0.39
UAUGAGCAAUAUUACGUGAU | -3.04 ± 0.15 | -2.76 ± 0.25
UAUGAGCAAUAUUACGUGCC | -4.14 ± 0.46 | -2.28 ± 0.31
UAUGAGCAAUAUUACGUUGG | -4.07 ± 0.3 | -2.24 ± 0.22
UAUUAGCAAUAUUACGACGU | -1.02 ± 0.2 | -0.561 ± 0.17
UAUUAGCAAUAUUACGACUC | -2.24 ± 0.21 | -1.08 ± 0.3
UAUUAGCAAUAUUACGAGAU | – | -2.01 ± 0.34
UAUUAGCAAUAUUACGAUCU | -0.883 ± 0.12 | 0.167 ± 0.17
UAUUAGCAAUAUUACGCGGA | -2.1 ± 0.2 | -1.08 ± 0.13
UAUUAGCAAUAUUACGGACG | -0.257 ± 0.11 | 0.171 ± 0.12
UAUUAGCAAUAUUACGGAGA | -2.09 ± 0.25 | -2.18 ± 0.32
UAUUAGCAAUAUUACGGCUG | -0.432 ± 0.079 | 0.0834 ± 0.13
UAUUAGCAAUAUUACGGUUC | -3.84 ± 0.39 | -3 ± 0.29
UAUUAGCAAUAUUACGUAAU | -3.24 ± 0.26 | -1.93 ± 0.24
UAUUAGCAAUAUUACGUACG | -0.0813 ± 0.071 | -0.262 ± 0.09

Sequence | self-splicing fitness (ln) (30 °C) | self-splicing fitness (ln) (37 °C)
UCAAAGCAAUAUUACGAGCC | -2.27 ± 0.23 | –
UCAAAGCAAUAUUACGAUAA | -1.43 ± 0.11 | -0.335 ± 0.13
UCAAAGCAAUAUUACGAUGU | -1.09 ± 0.074 | -0.341 ± 0.081
UCAAAGCAAUAUUACGAUUG | -2.46 ± 0.14 | -0.73 ± 0.11
UCAAAGCAAUAUUACGCACG | -1.18 ± 0.11 | -0.632 ± 0.16
UCAAAGCAAUAUUACGCAGU | -3.16 ± 0.19 | -3.42 ± 0.31
UCAAAGCAAUAUUACGCCGA | -1.49 ± 0.15 | -0.381 ± 0.12
UCAAAGCAAUAUUACGCGGC | -3.92 ± 0.3 | -2.59 ± 0.23
UCAAAGCAAUAUUACGCUAA | -3.48 ± 0.25 | -2.87 ± 0.27
UCAAAGCAAUAUUACGCUUG | -2.27 ± 0.14 | -2.58 ± 0.26
UCAAAGCAAUAUUACGGCCA | -0.546 ± 0.13 | -0.278 ± 0.11
UCAAAGCAAUAUUACGGUGG | -1.79 ± 0.058 | -1.05 ± 0.083
UCAAAGCAAUAUUACGUACG | -0.29 ± 0.067 | 0.0719 ± 0.077
UCAAAGCAAUAUUACGUACU | -3.16 ± 0.45 | -2.28 ± 0.37
UCAAAGCAAUAUUACGUGCG | -1.13 ± 0.045 | -0.496 ± 0.064
UCACAGCAAUAUUACGACGG | -0.234 ± 0.066 | 0.353 ± 0.086
UCACAGCAAUAUUACGACUU | -3.28 ± 0.2 | -1.65 ± 0.12
UCACAGCAAUAUUACGAGAG | -3.55 ± 0.16 | -2.63 ± 0.19
UCACAGCAAUAUUACGAGCG | -0.409 ± 0.064 | -0.305 ± 0.093
UCACAGCAAUAUUACGCUAC | -3.12 ± 0.19 | -2.77 ± 0.21
UCACAGCAAUAUUACGGAUG | -2.4 ± 0.12 | -1.89 ± 0.13
UCACAGCAAUAUUACGGGAU | -3.45 ± 0.23 | -2.36 ± 0.24
UCACAGCAAUAUUACGGGUG | -2.37 ± 0.09 | -1.67 ± 0.083
UCACAGCAAUAUUACGGGUU | -3.77 ± 0.16 | -2.33 ± 0.12
UCACAGCAAUAUUACGGUCU | -1.01 ± 0.081 | -1.67 ± 0.11
UCACAGCAAUAUUACGUCCC | -4.32 ± 0.42 | -2.01 ± 0.45
UCACAGCAAUAUUACGUGGU | -4.05 ± 0.19 | -3.15 ± 0.18

Sequence | self-splicing fitness (ln) (30 °C) | self-splicing fitness (ln) (37 °C)
UCACAGCAAUAUUACGUGUC | -3.55 ± 0.2 | -2.6 ± 0.2
UCACAGCAAUAUUACGUUAC | -3.74 ± 0.23 | -2.06 ± 0.16
UCACAGCAAUAUUACGUUAG | -2.17 ± 0.077 | -1.49 ± 0.088
UCACAGCAAUAUUACGUUCU | -3.63 ± 0.22 | -1.5 ± 0.13
UCAGAGCAAUAUUACGAACC | – | -1.15 ± 0.42
UCAGAGCAAUAUUACGAACG | -3.12 ± 0.32 | -1.85 ± 0.3
UCAGAGCAAUAUUACGACAC | -2.63 ± 0.37 | -0.191 ± 0.45
UCAGAGCAAUAUUACGACGG | -0.865 ± 0.14 | 0.304 ± 0.18
UCAGAGCAAUAUUACGAGCA | – | -2.06 ± 0.48
UCAGAGCAAUAUUACGAUCG | – | -2.39 ± 0.33
UCAGAGCAAUAUUACGCCCA | -2.06 ± 0.44 | –
UCAGAGCAAUAUUACGCGAA | -2.61 ± 0.21 | -3.1 ± 0.29
UCAGAGCAAUAUUACGCGCG | -2.44 ± 0.19 | -1.79 ± 0.18
UCAGAGCAAUAUUACGCUAU | -3.45 ± 0.48 | -2.08 ± 0.41
UCAGAGCAAUAUUACGCUUA | -2.91 ± 0.24 | -2.48 ± 0.18
UCAGAGCAAUAUUACGCUUC | -1.74 ± 0.24 | -2.73 ± 0.48
UCAGAGCAAUAUUACGGACU | – | -1.77 ± 0.3
UCAGAGCAAUAUUACGGGCC | -3.69 ± 0.44 | –
UCAGAGCAAUAUUACGGGUC | -3.97 ± 0.34 | -2.12 ± 0.32
UCAGAGCAAUAUUACGGUGC | -3.88 ± 0.35 | -0.485 ± 0.15
UCAGAGCAAUAUUACGUCAG | -2.84 ± 0.3 | -2.41 ± 0.29
UCAGAGCAAUAUUACGUCCU | -3.91 ± 0.42 | –
UCAGAGCAAUAUUACGUUGC | – | -1.48 ± 0.32
UCAGAGCAAUAUUACGUUUU | -3.84 ± 0.26 | -3.13 ± 0.26
UCAUAGCAAUAUUACGACGA | -0.24 ± 0.096 | -0.532 ± 0.11
